Reference: publication PMC6957217

Biological target: Three of the mutant needles, I933A, N937A, and G938A
Test: ELISA; gp37 trimers coated (100 ng/well) overnight at 4°C, casein block, OmpC added (various molar ratios; gp37:OmpC 1:1 for the mutants), 37°C 2 hr, PBS-T washes, bound OmpC detected with mouse anti-OmpC sera and HRP anti-mouse IgG

- fold binding against the WT needle: 2 to 3 fold
B1: recombinant OmpC trimer (outer membrane protein C) (natural protein)
chain: AEVYNKDGNKLDLYGKVDGLHYFSDNKDVDGDQTYMRLGFKGETQVTDQLTGYGQWEYQIQGNSAENENNSWTRVAFAGLKFQDVGSFDYGRNYGVVYDVTSWTDVLPEFGGDTYGSDNFMQQRGNGFATYRNTDFFGLVDGLNFAVQYQGKNGNPSGEGFTSGVTNNGRDALRQNGDGVGGSITYDYEGFGIGGAISSSKRTDAQNTAAYIGNGDRAETYTGGLKYDANNIYLAAQYTQTYNATRVGSLGWANKAQNFEAVAQYQFDFGLRPSLAYLQSKGKNLGRGYDDEDILKYVDVGATYYFNKNMSTYVDYKINLLDDNQFTRDAGINTDNIVALGLVYQF
